According to publication PMC8752480 (Journal of molecular biology, 2021):

B1: hexon (major capsid protein) of HAdV-C5 in the Ad5F35-ts1 virion (natural protein)
chain: MATPSMMPQWSYMHISGQDASEYLSPGLVQFARATETYFSLNNKFRNPTVAPTHDVTTDRSQRLTLRFIPVDREDTAYSYKARFTLAVGDNRVLDMASTYFDIRGVLDRGPTFKPYSGTAYNALAPKGAPNPCEWDEAATALEINLEEEDDDNEDEVDEQAEQQKTHVFGQAPYSGINITKEGIQIGVEGQTPKYADKTFQPEPQIGESQWYETEINHAAGRVLKKTTPMKPCYGSYAKPTNENGGQGILVKQQNGKLESQVEMQFFSTTEATAGNGDNLTPKVVLYSEDVDIETPDTHISYMPTIKEGNSRELMGQQSMPNRPNYIAFRDNFIGLMYYNSTGNMGVLAGQASQLNAVVDLQDRNTELSYQLLLDSIGDRTRYFSMWNQAVDSYDPDVRIIENHGTEDELPNYCFPLGGVINTETLTKVKPKTGQENGWEKDATEFSDKNEIRVGNNFAMEINLNANLWRNFLYSNIALYLPDKLKYSPSNVKISDNPNTYDYMNKRVVAPGLVDCYINLGARWSLDYMDNVNPFNHHRNAGLRYRSMLLGNGRYVPFHIQVPQKFFAIKNLLLLPGSYTYEWNFRKDVNMVLQSSLGNDLRVDGASIKFDSICLYATFFPMAHNTASTLEAMLRNDTNDQSFNDYLSAANMLYPIPANATNVPISIPSRNWAAFRGWAFTRLKTKETPSLGSGYDPYYTYSGSIPYLDGTFYLNHTFKKVAITFDSSVSWPGNDRLLTPNEFEIKRSVDGEGYNVAQCNMTKDWFLVQMLANYNIGYQGFYIPESYKDRMYSFFRNFQPMSRQVVDDTKYKDYQQVGILHQHNNSGFVGYLAPTMREGQAYPANFPYPLIGKTAVDSITQKKFLCDRTLWRIPFSSNFMSMGALTDLGQNLLYANSAHALDMTFEVDPMDEPTLLYVLFEVFDVVRVHRPHRGVIETVYLRTPFSAGNATT

What was measured:
[1] = target: B1; experiment: […]
[…] = target: the molecule itself; experiment: […]

Row | Binder | binding result [1] | binding result ([…])
1 | precursor of protein VI (pVI) of HAdV-C5 in the Ad5F35-ts1 virion (natural protein) MEDINFASLAPRHGSRPFMGNWQDIGTSNMSGGAFSWGSLWSGIKNFGSTVKNYGSKAWNSSTGQMLRDKLKEQNFQQKVVDGLASGISGVVDLANQAVQNKINSKLDPRPPVEEPPPAVETVSPEGRGEKRPRPDREETLVTQIDEPPSYEEALKQGLPTTRPIAPMATGVLGQHTPVTLDLPPPADTQQKPVLPGPTAVVVTRPSRASLRRAASGPRSLRPVASGNWQSTLNSIVGLGVQSLKRRRCF | binds | –
2 | precursor of protein IIIa (pIIIa) of HAdV-C5 in the Ad5F35-ts1 virion (natural protein) MMQDATDPAVRAALQSQPSGLNSTDDWRQVMDRIMSLTARNPDAFRQQPQANRLSAILEAVVPARANPTHEKVLAIVNALAENRAIRPDEAGLVYDALLQRVARYNSGNVQTNLDRLVGDVREAVAQRERAQQQGNLGSMVALNAFLSTQPANVPRGQEDYTNFVSALRLMVTETPQSEVYQSGPDYFFQTSRQGLQTVNLSQAFKNLQGLWGVRAPTGDRATVSSLLTPNSRLLLLLIAPFTDSGSVSRDTYLGHLLTLYREAIGQAHVDEHTFQEITSVSRALGQEDTGSLEATLNYLLTNRRQKIPSLHSLNSEEERILRYVQQSVSLNLMRDGVTPSVALDMTARNMEPGMYASNRPFINRLMDYLHRAAAVNPEYFTNAILNPHWLPPPGFYTGGFEVPEGNDGFLWDDIDDSVFSPQPQTLLELQQREQAEAALRKESFRRPSSLSDLGAAAPRSDASSPFPSLIGSLTSTRTTRPRLLGEEEYLNNSLLQPQREKNLPPAFPNNGIESLVDKMSRWKTYAQEHRDVPGPRPPTRRQRHDRQRGLVWEDDDSADDSSVLDLGGSGNPFAHLRPRLGRMF | binds | binds
3 | B1 | – | binds
4 | protein IX of HAdV-C5 in the Ad5F35-ts1 virion (natural protein) MSTNSFDGSIVSSYLTTRMPPWAGVRQNVMGSSIDGRPVLPANSTTLTYETVSGTPLETAASAAASAAAATARGIVTDFAFLSPLASSAASRSSARDDKLTALLAQLDSLTRELNVVSQQLLDLRQQVSALKASSPPNAV | binds | –
5 | precursor of protein VIII (pVIII) of HAdV-C5 in the Ad5F35-ts1 virion (natural protein) MSKEIPTPYMWSYQPQMGLAAGAAQDYSTRINYMSAGPHMISRVNGIRAHRNRILLEQAAITTTPRNNLNPRSWPAALVYQESPAPTTVVLPRDAQAEVQMTNSGAQLAGGFRHRVRSPGQGITHLTIRGRGIQLNDESVSSSLGLRPDGTFQIGGAGRPSFTPRQAILTLQTSSSEPRSGGIGTLQFIEEFVPSVYFNPFSGPPGHYPDQFIPNFDAVKDSADGYD | binds | –
6 | penton base of HAdV-C5 in the Ad5F35-ts1 virion (natural protein) MRRAAMYEEGPPPSYESVVSAAPVAAALGSPFDAPLDPPFVPPRYLRPTGGRNSIRYSELAPLFDTTRVYLVDNKSTDVASLNYQNDHSNFLTTVIQNNDYSPGEASTQTINLDDRSHWGGDLKTILHTNMPNVNEFMFTNKFKARVMVSRLPTKDNQVELKYEWVEFTLPEGNYSETMTIDLMNNAIVEHYLKVGRQNGVLESDIGVKFDTRNFRLGFDPVTGLVMPGVYTNEAFHPDIILLPGCGVDFTHSRLSNLLGIRKRQPFQEGFRITYDDLEGGNIPALLDVDAYQASLKDDTEQGGGGAGGSNSSGSGAEENSNAAAAAMQPVEDMNDHAIRGDTFATRAEEKRAEAEAAAEAAAPAAQPEVEKPQKKPVIKPLTEDSKKRSYNLISNDSTFTQYRSWYLAYNYGDPQTGIRSWTLLCTPDVTCGSEQVYWSLPDMMQDPVTFRSTRQISNFPVVGAELLPVHSKSFYNDQAVYSQLIRQFTSLTHVFNRFPENQILARPPAPTITTVSENVPALTDHGTLPLRNSIGGVQRVTITDARRRTCPYVYKALGIVSPRVLSSRTF | binds | binds
